The values below come from patent publication US20210032299A1 (Eli Lilly, published 2021).

Starred links: 1 amine or outer side, 2 acyl side, 3 side chain; linkers in the order of their positions; H or OH if unused. Non-standard residues stand in square brackets, D forms with d. Groups on a side chain read outwards from the residue. No end group written: not given here. *: point of attachment. C20 diacid = O=C(O)CCCCCCCCCCCCCCCCCCC(=O)*; αMePhe(2-F) = C[C@](N)(Cc1ccccc1F)C(=O)O; γGlu = O=C(O)[C@H](CCC(=O)[*:2])N[*:1]; 4Pal = N[C@@H](Cc1ccncc1)C(=O)O; AEEA = NCCOCCOCC(=O)O; Aib = CC(C)(N)C(=O)O

T1: human glucose-dependent insulinotropic polypeptide (GIP) receptor (human, UniProt P48546 22-466)
T1 construct: whole, on cells; Assayed as crude membranes of stably transfected CHO cells; also called hGIPR; human GIP receptor
T1 sequence (looked up): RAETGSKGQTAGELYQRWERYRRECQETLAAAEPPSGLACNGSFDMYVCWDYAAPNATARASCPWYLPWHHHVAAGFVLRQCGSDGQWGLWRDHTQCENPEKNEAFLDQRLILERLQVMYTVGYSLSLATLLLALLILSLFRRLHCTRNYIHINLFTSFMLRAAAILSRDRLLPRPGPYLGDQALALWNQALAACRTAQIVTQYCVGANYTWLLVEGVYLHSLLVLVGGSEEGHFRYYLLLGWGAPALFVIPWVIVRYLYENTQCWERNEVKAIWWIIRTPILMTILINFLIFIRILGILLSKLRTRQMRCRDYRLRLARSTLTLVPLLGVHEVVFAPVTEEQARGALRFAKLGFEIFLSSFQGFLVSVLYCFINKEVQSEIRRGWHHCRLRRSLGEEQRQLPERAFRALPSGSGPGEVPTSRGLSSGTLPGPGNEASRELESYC

B1: Example 11 (peptide)
peptide: Y[dA]EGTFISDYSILLDKK([AEEA-AEEA-γGlu-C20 diacid])AQQDFVNWLLAQGPSSGAPPPS-NH2
modifications: N-terminus assumed
SMILES: CC[C@H](C)[C@H](NC(=O)[C@H](CO)NC(=O)[C@H](Cc1ccc(O)cc1)NC(=O)[C@H](CC(=O)O)NC(=O)[C@H](CO)NC(=O)[C@@H](NC(=O)[C@H](Cc1ccccc1)NC(=O)[C@@H](NC(=O)CNC(=O)[C@H](CCC(=O)O)NC(=O)[C@@H](C)NC(=O)[C@@H](N)Cc1ccc(O)cc1)[C@@H](C)O)[C@@H](C)CC)C(=O)N[C@@H](CC(C)C)C(=O)N[C@@H](CC(C)C)C(=O)N[C@@H](CC(=O)O)C(=O)N[C@@H](CCCCN)C(=O)N[C@@H](CCCCNC(=O)COCCOCCNC(=O)COCCOCCNC(=O)CC[C@H](NC(=O)CCCCCCCCCCCCCCCCCCC(=O)O)C(=O)O)C(=O)N[C@@H](C)C(=O)N[C@@H](CCC(N)=O)C(=O)N[C@@H](CCC(N)=O)C(=O)N[C@@H](CC(=O)O)C(=O)N[C@@H](Cc1ccccc1)C(=O)N[C@H](C(=O)N[C@@H](CC(N)=O)C(=O)N[C@@H](Cc1c[nH]c2ccccc12)C(=O)N[C@@H](CC(C)C)C(=O)N[C@@H](CC(C)C)C(=O)N[C@@H](C)C(=O)N[C@@H](CCC(N)=O)C(=O)NCC(=O)N1CCC[C@H]1C(=O)N[C@@H](CO)C(=O)N[C@@H](CO)C(=O)NCC(=O)N[C@@H](C)C(=O)N1CCC[C@H]1C(=O)N1CCC[C@H]1C(=O)N1CCC[C@H]1C(=O)N[C@@H](CO)C(N)=O)C(C)C
B2: Example 12 (peptide)
peptide: Y[dA]EGTFISDYSILLDKK([AEEA-AEEA-γGlu-C20 diacid])AQQDFVNWLLAGGPSSGAPPPS-NH2
modifications: N-terminus assumed
SMILES: CC[C@H](C)[C@H](NC(=O)[C@H](CO)NC(=O)[C@H](Cc1ccc(O)cc1)NC(=O)[C@H](CC(=O)O)NC(=O)[C@H](CO)NC(=O)[C@@H](NC(=O)[C@H](Cc1ccccc1)NC(=O)[C@@H](NC(=O)CNC(=O)[C@H](CCC(=O)O)NC(=O)[C@@H](C)NC(=O)[C@@H](N)Cc1ccc(O)cc1)[C@@H](C)O)[C@@H](C)CC)C(=O)N[C@@H](CC(C)C)C(=O)N[C@@H](CC(C)C)C(=O)N[C@@H](CC(=O)O)C(=O)N[C@@H](CCCCN)C(=O)N[C@@H](CCCCNC(=O)COCCOCCNC(=O)COCCOCCNC(=O)CC[C@H](NC(=O)CCCCCCCCCCCCCCCCCCC(=O)O)C(=O)O)C(=O)N[C@@H](C)C(=O)N[C@@H](CCC(N)=O)C(=O)N[C@@H](CCC(N)=O)C(=O)N[C@@H](CC(=O)O)C(=O)N[C@@H](Cc1ccccc1)C(=O)N[C@H](C(=O)N[C@@H](CC(N)=O)C(=O)N[C@@H](Cc1c[nH]c2ccccc12)C(=O)N[C@@H](CC(C)C)C(=O)N[C@@H](CC(C)C)C(=O)N[C@@H](C)C(=O)NCC(=O)NCC(=O)N1CCC[C@H]1C(=O)N[C@@H](CO)C(=O)N[C@@H](CO)C(=O)NCC(=O)N[C@@H](C)C(=O)N1CCC[C@H]1C(=O)N1CCC[C@H]1C(=O)N1CCC[C@H]1C(=O)N[C@@H](CO)C(N)=O)C(C)C
B3: Example 39 (peptide)
peptide: Y[Aib]EGT[αMePhe(2-F)]ISDYSIALDKK([AEEA-AEEA-γGlu-C20 diacid])HQ[Aib]DFVE[4Pal]LLEGGPSSGAPPPS-NH2
modifications: N-terminus assumed
SMILES: CC[C@H](C)[C@H](NC(=O)[C@H](CO)NC(=O)[C@H](Cc1ccc(O)cc1)NC(=O)[C@H](CC(=O)O)NC(=O)[C@H](CO)NC(=O)[C@@H](NC(=O)[C@](C)(Cc1ccccc1F)NC(=O)[C@@H](NC(=O)CNC(=O)[C@H](CCC(=O)O)NC(=O)C(C)(C)NC(=O)[C@@H](N)Cc1ccc(O)cc1)[C@@H](C)O)[C@@H](C)CC)C(=O)N[C@@H](C)C(=O)N[C@@H](CC(C)C)C(=O)N[C@@H](CC(=O)O)C(=O)N[C@@H](CCCCN)C(=O)N[C@@H](CCCCNC(=O)COCCOCCNC(=O)COCCOCCNC(=O)CC[C@H](NC(=O)CCCCCCCCCCCCCCCCCCC(=O)O)C(=O)O)C(=O)N[C@@H](Cc1c[nH]cn1)C(=O)N[C@@H](CCC(N)=O)C(=O)NC(C)(C)C(=O)N[C@@H](CC(=O)O)C(=O)N[C@@H](Cc1ccccc1)C(=O)N[C@H](C(=O)N[C@@H](CCC(=O)O)C(=O)N[C@@H](Cc1ccncc1)C(=O)N[C@@H](CC(C)C)C(=O)N[C@@H](CC(C)C)C(=O)N[C@@H](CCC(=O)O)C(=O)NCC(=O)NCC(=O)N1CCC[C@H]1C(=O)N[C@@H](CO)C(=O)N[C@@H](CO)C(=O)NCC(=O)N[C@@H](C)C(=O)N1CCC[C@H]1C(=O)N1CCC[C@H]1C(=O)N1CCC[C@H]1C(=O)N[C@@H](CO)C(N)=O)C(C)C
B4: Example 18 (peptide)
peptide: YXEGTFISDYSILLDKKAQXDFVNXLLAQGPSSGAPPPS
modifications: D-Ala2; K17((2-[2-(2-Amino-ethoxy)-ethoxy]-acetyl)2-(γ-Glu)-CO-(CH2)16-CO2H); Aib20; 4-Pal25; C-terminal amide
B5: Example 8 (peptide)
peptide: Y[Aib]EGTFISDYSILLDKK([AEEA-AEEA-γGlu-C20 diacid])AQ[Aib]DFVNWLLAQGPSSGAPPPS-NH2
modifications: N-terminus assumed
SMILES: CC[C@H](C)[C@H](NC(=O)[C@H](CO)NC(=O)[C@H](Cc1ccc(O)cc1)NC(=O)[C@H](CC(=O)O)NC(=O)[C@H](CO)NC(=O)[C@@H](NC(=O)[C@H](Cc1ccccc1)NC(=O)[C@@H](NC(=O)CNC(=O)[C@H](CCC(=O)O)NC(=O)C(C)(C)NC(=O)[C@@H](N)Cc1ccc(O)cc1)[C@@H](C)O)[C@@H](C)CC)C(=O)N[C@@H](CC(C)C)C(=O)N[C@@H](CC(C)C)C(=O)N[C@@H](CC(=O)O)C(=O)N[C@@H](CCCCN)C(=O)N[C@@H](CCCCNC(=O)COCCOCCNC(=O)COCCOCCNC(=O)CC[C@H](NC(=O)CCCCCCCCCCCCCCCCCCC(=O)O)C(=O)O)C(=O)N[C@@H](C)C(=O)N[C@@H](CCC(N)=O)C(=O)NC(C)(C)C(=O)N[C@@H](CC(=O)O)C(=O)N[C@@H](Cc1ccccc1)C(=O)N[C@H](C(=O)N[C@@H](CC(N)=O)C(=O)N[C@@H](Cc1c[nH]c2ccccc12)C(=O)N[C@@H](CC(C)C)C(=O)N[C@@H](CC(C)C)C(=O)N[C@@H](C)C(=O)N[C@@H](CCC(N)=O)C(=O)NCC(=O)N1CCC[C@H]1C(=O)N[C@@H](CO)C(=O)N[C@@H](CO)C(=O)NCC(=O)N[C@@H](C)C(=O)N1CCC[C@H]1C(=O)N1CCC[C@H]1C(=O)N1CCC[C@H]1C(=O)N[C@@H](CO)C(N)=O)C(C)C

In one assay the target is T1, human glucose-dependent insulinotropic …. Description: SPA, displacement of [125I]-GIP from hGIPR membranes, 0.1% bacitracin. On the technique in general: In a radioligand displacement assay an active substance lowers the binding of a labelled ligand.
What is called Ki is the equilibrium dissociation constant of an inhibitor or competing ligand from its target. A lower Ki goes with a stronger hold on the target. Consider B1, for which the affinity, expressed as Ki, was 0.0584 nM.

B2 gave a Ki of 0.0876 nM.

Molecule B3 yielded a Ki of 0.0444 nM.

With B4, the affinity, expressed as Ki, was 0.0331 nM.

In the case of B5, the affinity corresponds to a Ki of 0.027 nM.

The target of a further assay is T2, human GLP-1 receptor (human, UniProt P43220 24-463).
T2 construct: whole, on cells; Assayed as crude membranes of stably transfected HEK293 cells; also called hGLP1R; hGLP-1R
Description: SPA, displacement of [125I]-GLP-1 from hGLP-1R membranes, 0.1% bacitracin. A digest of the protocol:
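Binding buffer: 25 mM HEPES pH 7.4, 2.5 mM CaCl₂, 1 mM MgCl₂, 0.1% bacitracin, 0.003% Tween-20, protease inhibitors without EDTA. Four-parameter nonlinear regression; Kᵢ given as geometric mean ± SEM, n = independent replicates run on different days.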
Regarding B1, affinity was put at a Ki of 85.9 nM.

The molecule B2 registered a Ki of 46.8 nM.

Turning to B3, the Ki turned out to be 235 nM.

Turning to B4, affinity was put at a Ki of 158 nM.

Molecule B5 gave a Ki of 38.1 nM.

In another assay the target is T3, human glucagon receptor (human, UniProt P47871 26-477).
T3 construct: whole, on cells; Assayed as crude membranes of stably transfected HEK293 cells; also called hGcgR; GcgR
T3 sequence (P47871 26-477): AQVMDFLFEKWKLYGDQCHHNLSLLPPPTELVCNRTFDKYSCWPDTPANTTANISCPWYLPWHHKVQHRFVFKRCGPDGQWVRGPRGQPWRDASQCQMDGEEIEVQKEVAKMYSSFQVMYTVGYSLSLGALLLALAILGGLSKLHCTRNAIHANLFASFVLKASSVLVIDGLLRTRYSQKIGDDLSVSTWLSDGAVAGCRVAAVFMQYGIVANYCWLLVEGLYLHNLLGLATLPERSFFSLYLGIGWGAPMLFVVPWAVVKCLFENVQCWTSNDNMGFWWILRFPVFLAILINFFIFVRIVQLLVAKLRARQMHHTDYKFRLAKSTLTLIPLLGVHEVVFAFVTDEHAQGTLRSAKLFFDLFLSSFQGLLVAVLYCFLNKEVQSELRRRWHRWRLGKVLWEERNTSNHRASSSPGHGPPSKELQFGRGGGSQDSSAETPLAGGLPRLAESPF
Description: SPA, displacement of [125I]-Gcg from hGcgR membranes, 0.1% bacitracin. The gist of the method: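 Binding buffer: 25 mM HEPES pH 7.4, 2.5 mM CaCl₂, 1 mM MgCl₂, 0.003% Tween-20, protease inhibitors without EDTA. Counted by scintillation after 12 h incubation/settling at room temperature. Four-parameter nonlinear fit; Kᵢ given as geometric mean ± SEM of independent replicates run on different days.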
B1: the Ki was found to be 163 nM.

In turn, B2 had a Ki of 134 nM.

B3 came in with a Ki of 76 nM.

As for B4, the Ki turned out to be 463 nM.

In turn, B5 yielded a Ki of 101 nM.
